Drawing on US20020103111A1 (Takeda / Millennium, published 2002), this text covers IC50 for two molecules.

Bridge positions count the residues as written; N and C are the ends. Ends that are not written are not given here. R1 = not defined here

The target of assay [1] is T1, human α4β7 integrin (human, UniProt P13612 34-1032; P26010 20-798).
T1 construct: whole, on cells; assays run with Mn++; also called α4β7 on HUT 78 cells; α4β7 on RPMI 8866 cells
Nature of the assay: inhibition of HUT 78 cell adhesion to murine MAdCAM-1/mCk. The protocol:
The assay was performed in a 96-well format. Plates were coated overnight at 4° C. with 53 μl/well of a 5 μg/mL solution of rat anti-mCk in carbonate buffer. The plates were blocked for 1 hour at 37° C. with 100 μL/well of 1% BSA in PBS. The BSA/PBS solution was removed, and 50 μL of MAdCAM-mCk supernatant was added neat to each well. The assay was conducted under conditions in which capture antibody was the limiting reagent.
Cell adhesion was measured in the presence or absence of compounds. The compounds were resuspended in 100% DMSO, subsequently diluted 1:10 in water, and finally diluted again 1:10 in the assay: 50 μL of 2X Assay Bufler, 30 μL water, 20 μL of compound were added to each well.
Over this range, Four different concentrations were tested in duplicate.

In assay [2] the target is T1, human α4β7 integrin. Nature of the assay: inhibition of RPMI 8866 cell adhesion to huMAdCAM-1-Ig.

B1: Ac-Cys*-Gly-Leu-Asp-Thr-Ser-Leu-Gly-Cys* (peptide)
peptide: Ac-CGLDTSLGC
modifications: disulfide 1-9; not fully specified (C-terminus); printed as Ac-Cys*-Gly-Leu-Asp-Thr-Ser-Leu-Gly-Cys*
notes: also called Ex No 5; 00145-1B
For orientation: IC50 means the concentration at which inhibition is half-maximal. B1: the IC50 with human α4β7 integrin [1] worked out at 266 µM.

B2: R1-Leu-Asp-Thr-Ser-Leu, L# 1276 (Table 4) (peptide)
peptide: R1-LDTSL
modifications: reading uncertain; also: printed as R1-Leu-Asp-Thr-Ser-Leu
notes: not tied
B2: in the assay with human α4β7 integrin [2], the IC50 was 2.7 µM.
